B15: SBV Gc head domain (SBV-Gc_(head)) (domain or fragment)
chain: INCKNIQSTQLTIEHLSKCMAFYQNKTSSPVVINEIISDASVDEQELIKSLNLNCNVIDRFISESSVIETQVYYEYIKSQLCPLQVHDIFTINSASNIQWKALARSFTLGVCNTNPHKHICRCLESMQMCTSTKTDHAREMSIYYDGHPDRFEHDMKIILNIMRYIVPGLGRVLLDQIKQTKDYQALRHIQGKLSPKSQSNLQLKGFLEFVDFILGANVTIEKTPQTLTTLSLI
notes: not shown: Twin Strep-tag, C-terminal, kept

Experiment [1] has as its target B15. In words: ELISA; competition ELISA: antigen on Strep-Tactin microplates; competing VHH at 11.11 µg/ml, 1 hr RT, then HRP-conjugated analyte VHH, 1 hr RT; competition as percentage of blocking, above 50% counted as efficient. As to conditions: both partners purified. In general terms: In an ELISA, binding on a coated surface is turned into a signal by an enzyme label.

The target of another experiment is RVFV-Gn subdomain B (Rift valley fever virus (RVFV).). In words: ELISA. As to conditions: both partners purified.
The target in experiment [2] is T1, RVFV Gn ectodomain (RVFV-Gn_(ecto)) (Rift Valley fever virus, Clone 13, UniProt A2T080). In words: ELISA. The note with it: both partners purified.
For a further experiment, the target named is RVFV-Gn head domain (Rift Valley fever virus, Clone 13, UniProt A2T080). In words: ELISA. The note with it: both partners purified.
The target of experiment [3] is T1, RVFV Gn ectodomain (RVFV-Gn_(ecto)).
The target of a further experiment is T2, SB10-ELP2ABD-SB10 (Lama glama).
T2 construct: also called bivalent ELP-based VHH complex; copies: + +
In words: ELISA; […] (25 mM Tris-HCl, 2 mM EDTA, 140 mM NaCl, pH 7.6, […]. The note with it: both partners purified.

Like-named read-outs stand apart in the source and are kept apart here.

B1: SB11 (VHH)
VHH: QVQLQESGGGMVQAGGSLRLSCAASGRTFRGYGMGWWRQAPGQERDIVAWIRWSDSTGFYIDSVKGRFTISSDNAKNTVYLQMNSLKVEDTAVYYCAAARGTTGWGAVEDRYWGQGAQVTVSS
notes: source: S. cerevisiae, purified from the culture supernatant (IMAC, Ni-NTA)
For B1, in experiment [1], the binding result is listed as “binds”.

B2: RV148 (VHH)
VHH: QVQLQQSGGGLVQAGDSLRVSCAASGRTFSSYVLAWFRQAPGKEREFVAVVGWTGARKEYTDSVKGRFTISRDNAKNTVYLQMNSLKPEDTAVYYCAAGRYYIADGSLYDFWGQGTQVTVSS
notes: as for B1
B2: the binding result (with RVFV-Gn subdomain B; in experiment [2]; in the experiment with RVFV-Gn head domain) was “binds” in each case.

B3: RV115 (VHH)
VHH: QVQLQESGGGLVQPGGSLRLSCAVSGSMFSIDAMGWYRQDPGEERELVAAITSGGRTSYADSVKGRFTISRDNANNAVYLQMNNLKPEDTAVYYCNADAVAPFRMTYWGKGTLVTVSS
notes: also called VHH RV115; source: S. cerevisiae, purified from the culture supernatant (IMAC, Ni-NTA)
Take B3: the binding result (in experiment [2]; with RVFV-Gn head domain) was “binds” throughout.

B4: RV126 (VHH)
VHH: QVQLQESGGGLVQPGGSLRLSCAASGSIFRFNAMGWYRQAPGNQRDQQRELVAVATNHGTTNYADSVKGRFTISRDNAKNTVALQMNSLKPEDTAVYYCNIRNRLTGDDYWGQGTQVTVSS
For the molecule B4, the binding result in experiment [3] is “binds”.

B5: RV110 (VHH)
VHH: QVQLQESGGGLVQAGGSLRLSCVASGRSFSTSAMGWFRQTPGKEREFVAAISTSGRPTYYADSVKGRGTISRDNAKATVYLEMNSLKPEDTAAYYCAAGMRPRLTGDYYSTDEYDYWGQGTQVTVSS
As for B5, the binding result in experiment [3] is recorded as “binds”.

B6: RV108 (VHH)
VHH: QVQLQESGGGLVQAGGSLRLSCVASGRTPSRFFMAWFRQSPGKEREFVARINWGGGNTYYADSVKSRFTISMNNARNTAYLQMNNLKPEDTAVYICAANSDLETNVASLYDYWGQGTQVTVSS
Consider B6, for which the binding result in experiment [3] is on record as “binds”.

B7: RV145 (VHH)
VHH: QVQLQESGGGLVQAGASLRLSCAASGLTFSSYRMGWFRQAPGKEREFVSAINWSGGNTYYADSLKGRFTISRDNAKNTVYLQMNSLKPEDTAVYYCASQWRLSGVDPLRAHEYEYWGQGTQVTVSS
As for B7, the binding result in experiment [3] is “binds”.

B8: RV124 (VHH)
VHH: QVQLQQSGGGLVQPGGSLRLSCAASGIISSIYAMGWYRQAPGKQRELVATAGRVTNYADSVKDRFTISRDNAKNTVYLQMNSLKPEDTAVYYCNARNRLTDDNYWGQGTQVTVSS
Consider B8, for which the binding result in experiment [3] is reported as “binds”.

B9: SB13 (VHH)
VHH: QVQLQESGGGLVQAGDSLRLSCAVSGRTVSSNVMAWFRQAPGKEREAVAFIDSGSGGWPYYSDSVKGRFTISRDNAKNMVYLQMDSLIPEDTAVYYCAADSAVYSRSSRWWLRASSYSYWGQGTQVTVSS
notes: as for B1
As for B9, in experiment [1], the binding result is “binds”.

B10: RV104 (VHH)
VHH: QVQLQESGGGLVQAGGSLRLSCTASGRTNSNYFMTWFRQAPGKEREFVAIINHITGSTEYVDSVKGRFIISRDNAKNTVYLQMDSLKPEDTAVYYCASGRIYSAIPGLYDYWGQGTRVTVSS
notes: also called VHH RV104; source: S. cerevisiae, purified from the culture supernatant (IMAC, Ni-NTA)
For the molecule B10, the binding result (with RVFV-Gn subdomain B; in experiment [2]; with RVFV-Gn head domain) was “binds” in each case.

B11: RV141 (VHH)
VHH: QVQLQQSGGGLVQAGGSLRLSCAASGRTFSRYRMGWFRQAPGKEREFVAAINWSGGRTYYVDSMEGRFTISRDNAKNTVYLQMNSLKPEDTAVYRCAAQDRLTGNVYYHEEYDYWGQGTQVTVSS
With B11, in experiment [3], the binding result is on record as “binds”.

B12: RV134 (VHH)
VHH: QVQLQESGGGLVQAGGSLRLSCAASGLTFAFYTVGWFRQAPGKEREFVGGIIWAGGRTSYADSVKGRFTISRDNAENTVYLQMNSLRPEDTAVYYCAAKNRLTSTNEYDFWGQGTQVTVSS
With B12, in experiment [3], the binding result is listed as “binds”.

B13: SB12 (VHH)
VHH: QVQLQQSGGGLVQAGGSLRLSCAASGRKISSLTIYGMGWFRQAPGKEREFVAAISQAGGTTSYADSIKDRFTISRDNDKNTAYLQMNNLKPEDTAVYYCAADFLPRIISRRYSDYEYWGQGAQVTVSS
notes: as for B1
Consider B13, for which the binding result in experiment [1] is “binds”.

B14: RV136 (VHH)
VHH: QVQLQESGGGLVQAGGSLRLSCAASGRTFSRNTMGWFRQAPGKEREFVAAITGGGSTYYADSLKGRFTISRDNAKNTLYLQMNSLKPEDTAIYYCAQYKSSIYFIDYYLRIGDNYDYWGQGTQVTVSS
notes: as for B1
As for B14, the binding result (with RVFV-Gn subdomain B; in experiment [2]; in the experiment with RVFV-Gn head domain) was “binds” throughout. With B15, in the experiment with SB10-ELP2ABD-SB10, the binding result is listed as “binds”.

B16: SB9 (VHH)
VHH: QVQLQESGGGLVQPGGSLRLSCAASGFTFGSYDMSWVRQAPGKGPEWVSGINSGAISTYYADSVKGRFTISRDNAKNTLYLQMNSLKPEDTAVYYCAKADLDKMMEMVAGRPFLPHDPNFGSWGQGTQVTVSS
notes: as for B1
As to B16, the binding result in experiment [1] was “binds”.

B17: RV107 (VHH)
VHH: QVQLQESGGGLVQAGGSLRLSCTASGRTFDGVNMAWFRQIPGKEREFVATTLWRGNVPYYTDSVEGRFTISSDNAKNTGYLQMNSLKPEDTAVYYCAARTGSTFLSSALAQSEAVYSIWGQGTQVTVSS
notes: also called VHH RV107; source: S. cerevisiae, purified from the culture supernatant (IMAC, Ni-NTA)
Turning to B17, the binding result (in experiment [2]; with RVFV-Gn head domain) was “binds” throughout.

B18: RV150 (VHH)
VHH: QVQLQESGGGLVQAGGSLRLSCAASGRTLSSYAMGWFRQAPGKEREFVGAISWSGPMLYYGDSAKGRFTISRDNAKNTVYLQMNTLKPEDTAVYYCAAANRLTAEGWQQGYNYDYWGQGTQVTVSS
notes: also called VHH RV150; source: S. cerevisiae, purified from the culture supernatant (IMAC, Ni-NTA)
Regarding B18, in the experiment with RVFV-Gn head domain, the binding result was “binds”.

B19: SB10 (VHH)
VHH: QVQLQESGGGLVQAGDSLRVSCAASGRTLRNYHVGWFRQAPGKDREFVAAVSWDDSTYYTESVKGRFTISRDNANNTVYLQMNSLKPEDTAVYYCAADRGSVPFYSDFLRGRYEYGGQGTQVTVSS
notes: as for B1
Consider B19, for which, in experiment [1], the binding result is “binds”.

B20: SB14 (VHH)
VHH: QVQLQQSGGGLVQAGGSLRLSCTASGRTFSTYVMGWFRQAPGKEREFVGAISWSGGSTVYADSVKGRFTISRDDAKNTVYLQMNSLKPEDTAVYYCAADDSSWYLVLDAYEYDYWGQGTQVTVSS
notes: as for B1
As for B20, in experiment [1], the binding result is given as “binds”.

B21: RV152 (VHH)
VHH: QVQLQESGGGLVQAGGSLRLSCAASGRTASSYATGWFRQAPGKEREFVAAIMWSASITHYTDSVKGRFTISRDNAKNTVYLQMNSLKPEDTAVYYCAASKGIIATQAISAYDYWGQGTQVTVSS
For B21, in experiment [3], the binding result is given as “binds”.

B22: RV106 (VHH)
VHH: QVQLQESGGGLVQAGGSLRLSCAASGLTFSSYAMGWFRQAPGKEREFVASSSRIEGIIDYADSVKGRFTISRDNAKNTVYLQMDSLKPEDTAVYFCAATRAIIAGRSRSAYDYWGQGTQVTVSS
On to B22, for which, in experiment [3], the binding result is on record as “binds”.

B23: RV139 (VHH)
VHH: QVQLQESGGGLVQAGGSLRLSCAASGPTFSRVTTMGWFRQAPGKDREFVGAISWSDGITYYADSVKGRFTISRDNAKNTMFLQMNSLKPEDTAVYYCGAKIHGGSWFPNYEQYEGMYDFWGQGTQVTVSS
As to B23, the binding result in experiment [3] is recorded as “binds”.
